Results published in patent US20250186614A1, “COMPACT DRUG RESPONSIVE DOMAINS FOR REGULATION OF FUNCTION/ABUNDANCE AND DELIVERY OF POLYPEPTIDE PAYLOADS” (OBSIDIAN THERAPEUTICS, INC., priority 2022, published 2025).
Where a chain is given by its changes, count along the chain named. Names and notes keep the numbering of the source.

B1: FKBP-143: FKBP13 DRD Q72R, Q84G, A117H, P43R; SEQ ID NO: 93 (protein)
chain: HCRIKSRKGDVLHMHYTGKLEDGTEFDSSLPRNQPFVFSLGTGGVIKGWDQGLLGMCEGEKRKLVIPSELGYGERGHPPKIPGGATLVFEVELLKIER
modifications: Description of sequence: FKBP13-AcGFP-mCherry Fusion; Construct Name: FKBP-143; FKBP13 DRD in Construct : FKBP13 (mutated to match FKBP12 active site Q72R Q84G A117H) (DRD P43R)
B2: FKBP-144: FKBP13 DRD Q72R, Q84E, A117H, D50R, E98M; SEQ ID NO: 94 (protein)
chain: B1 chain with R3P, D10R, G44E, E58M
modifications: Description of sequence: FKBP13-AcGFP-mCherry Fusion; Construct Name: FKBP-144; FKBP13 DRD in Construct : FKBP13 (mutated to match FKBP12 active site Q72R Q84E A117H) (DRD D50R E98M)
B3: FKBP-149: FKBP13 DRD Q72R, Q84E, A117H, T64Q, L94G; SEQ ID NO: 99 (protein)
chain: B1 chain with R3P, T24Q, G44E, L54G
modifications: Description of sequence: FKBP13-AcGFP-mCherry Fusion; Construct Name: FKBP-149; FKBP13 DRD in Construct : FKBP13 (mutated to match FKBP12 active site Q72R Q84E A117H) (DRD T64Q L94G)
B4: FKBP-148: FKBP13 DRD Q72R, Q84E, A117H, D62N, D67N, D90N, M96G, E130K; SEQ ID NO: 98 (protein)
chain: B1 chain with R3P, D22N, D27N, G44E, D50N, M56G, E90K
modifications: Description of sequence: FKBP13-AcGFP-mCherry Fusion; Construct Name: FKBP-148; FKBP13 DRD in Construct : FKBP13 (mutated to match FKBP12 active site Q72R Q84E A117H) (DRD D62N D67N D90N M96G E130K)
B5: FKBP-145: FKBP13 DRD Q72R, Q84E, A117H, H41S, E61D; SEQ ID NO: 95 (protein)
chain: B1 chain with H1S, R3P, E21D, G44E
modifications: Description of sequence: FKBP13-AcGFP-mCherry Fusion; Construct Name: FKBP-145; FKBP13 DRD in Construct : FKBP13 (mutated to match FKBP12 active site Q72R Q84E A117H) (DRD H41S E61D)
B6: FKBP-147: FKBP13 DRD Q72R, Q84E, A117H, T64R, S108G, E137F; SEQ ID NO: 97 (protein)
chain: B1 chain with R3P, T24R, G44E, S68G, E97F
modifications: Description of sequence: FKBP13-AcGFP-mCherry Fusion; Construct Name: FKBP-147; FKBP13 DRD in Construct : FKBP13 (mutated to match FKBP12 active site Q72R Q84E A117H) (DRD T64R S108G E137F)
B7: FKBP-146: FKBP13 DRD Q72R, Q84E, A117H, L104S, I136L; SEQ ID NO: 96 (protein)
chain: B1 chain with R3P, G44E, L64S, I96L
modifications: Description of sequence: FKBP13-AcGFP-mCherry Fusion; Construct Name: FKBP-146; FKBP13 DRD in Construct : FKBP13 (mutated to match FKBP12 active site Q72R Q84E A117H) (DRD L104S I136L)

Each molecule was assayed on Jurkat cells (assay: Tacrolimus dose response of FKBP13-AcGFP-mCherry constructs stably transduced into Jurkat cells, GFP MFI by flow cytometry). Conditions: tacrolimus, Jurkat cells stably transduced; Table 6.
Format: cell-based
Outline: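 GFP geometric MFI was read by flow cytometry in mCherry+ cells and curve-fitted against tacrolimus dose. Cells were Jurkat E6-1, lentivirus-transduced with FKBP13-AcGFP-mCherry fusion constructs until 10-25% mCherry-positive on day 5 post-transduction.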
With B1 the “Fold Change” value was 14.97. For B2, the “Fold Change” value was 1.24. For B3, the “Fold Change” value was 39.28. For B4, the “Fold Change” value was 1.09. For B5, the “Fold Change” value was 11.05. B6 was tested, and the “Fold Change” value was 26.65. B7 was tested, and the “Fold Change” value was 1.19.
